For data set [1], the target named is T1, φW39 ΔN74 Ref (Bacteriophage phi W39).
T1 chain: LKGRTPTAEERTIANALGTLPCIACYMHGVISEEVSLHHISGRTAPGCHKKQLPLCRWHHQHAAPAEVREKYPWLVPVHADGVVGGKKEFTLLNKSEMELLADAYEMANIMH
The data set can be described thus: FP; no binding detected up to 10,000 nM. Conditions: tags: expressed from pET21A with NdeI start Met; label: 5'-6FAM. How it is done:
(§1) Fluorescence polarization DNA binding assay—Ref (or a variant) at 0.5-10,000 nM was incubated with 2 nM AJM25 71mer ssDNA or AJM25 annealed with AJG52 71mer to make dsDNA substrate in 25 mM Tris-acetate (pH 8.5), 3 mM potassium glutamate, 15 mM magnesium acetate, and 5% w/v glycerol at room temperature for 15 minutes. Fluorescence anisotropy (FA) was measured at 25° C., using a Tecan Infinite M1000 instrument with 470-nm excitation and 535-nm emission wavelengths for at least three replicates; the average FA values were plotted with one standard deviation of the mean shown as error. Prism software was used to convert FA values to the fraction of DNA bound and apparent dissociation constants were the Ref concentration (or variant) needed for 50% binding saturation.
(§2) Fluorescence polarization assays with labeled DNA substrates (ssDNA and dsDNA) were carried out to determine dissociation constants of each of the N-terminal domain truncations. […] For the P1 ΔN76 Ref protein, this is consistent with EMSA data from the earlier study (Gruenig et al 2011, supra). […] This indicates the presence of a critical sequence domain between residues 47-74.

For data set [2], the target named is T2, φW39 ΔN21 Ref (Bacteriophage phi W39).
T2 chain: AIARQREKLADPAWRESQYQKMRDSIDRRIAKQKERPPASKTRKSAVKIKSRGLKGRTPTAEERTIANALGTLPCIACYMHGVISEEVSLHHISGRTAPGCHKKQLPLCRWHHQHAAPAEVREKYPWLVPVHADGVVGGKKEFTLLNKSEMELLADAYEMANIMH
The data set can be described thus: FP; apparent Kd; 119±9; 15 mM Mg acetate, pH 8.5, 25 C. The conditions noted are these: tags: expressed from pET21A with NdeI start Met; label: 5'-6FAM. How it is done: as §1, §2

In data set [3] the target is T3, P1 Ref (wild type) (Bacteriophage P1, UniProt P35926 SEQ:1-186).
T3 sequence: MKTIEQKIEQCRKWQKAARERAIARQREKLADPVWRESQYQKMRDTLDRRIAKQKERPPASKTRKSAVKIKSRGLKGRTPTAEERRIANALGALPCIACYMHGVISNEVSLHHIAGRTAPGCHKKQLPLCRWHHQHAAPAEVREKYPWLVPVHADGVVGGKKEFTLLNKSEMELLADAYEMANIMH
The data set can be described thus: FP; apparent Kd; 14±1; 25 mM Tris-acetate pH 8.5, 15 mM Mg acetate, 3 mM K glutamate, 25 C. The conditions noted are these: label: 5'-6FAM. How it is done:
as §1, §2

For data set [4], the target named is T4, P1 ΔN76 Ref (Bacteriophage P1, UniProt P35926 SEQ:77-186).
T4 chain: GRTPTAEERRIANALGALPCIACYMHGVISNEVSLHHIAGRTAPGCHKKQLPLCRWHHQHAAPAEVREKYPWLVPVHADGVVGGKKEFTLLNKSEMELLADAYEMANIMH
The data set is described as follows: FP; no binding detected up to 10,000 nM; consistent with earlier EMSA. The conditions noted are these: label: 5'-6FAM. How it is done: as §1, §2
A general note: A gel shift assay detects complexes by their altered migration in electrophoresis.

Data set [5] addresses T5, φW39 ΔN47 Ref (Bacteriophage phi W39).
T5 chain: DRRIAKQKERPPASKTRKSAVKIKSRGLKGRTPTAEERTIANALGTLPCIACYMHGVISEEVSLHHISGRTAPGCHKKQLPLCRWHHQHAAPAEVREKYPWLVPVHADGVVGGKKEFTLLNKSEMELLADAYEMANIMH
The data set can be described thus: FP; apparent Kd; 113±7; 15 mM Mg acetate, pH 8.5, 25 C. The conditions noted are these: tags: expressed from pET21A with NdeI start Met; label: 5'-6FAM. How it is done:
as §1, §2

Data set [6] concerns the target T3, P1 Ref (wild type). The data set is described as follows: FP; apparent Kd; 14±1; cooperative; 15 mM Mg acetate, pH 8.5, 25 C. Conditions: label: 5'-6FAM on AJM25. How it is done:
as §1
(§3) The truncations were also assayed with 71mer dsDNA substrate. The dsDNA substrate was made by annealing the labeled 71mer oligonucleotide (AJM25) with the complementary 71mer oligonucleotide (AJG52). […] Instead, an increase in KD is seen as more of the N-terminus is truncated (FIG. 2B, 2C). Also, there is an apparent cooperativity when binding to dsDNA, and this cooperativity decreases as the N-terminus is truncated (FIG. 2C). This provides evidence that the N-terminal region of Ref is necessary for DNA binding. Specifically, the amino acids between position 47 and 74 are particularly important.

The target in data set [7] is T2, φW39 ΔN21 Ref. The data set can be described thus: FP; apparent Kd; 56±3; 15 mM Mg acetate, pH 8.5, 25 C. Conditions: tags: expressed from pET21A with NdeI start Met; label: 5'-6FAM on AJM25. How it is done:
as §1, §3

Data set [8] has as its target T1, φW39 ΔN74 Ref. The data set can be described thus: FP; no observable binding. The conditions noted are these: tags: expressed from pET21A with NdeI start Met; label: 5'-6FAM on AJM25. How it is done: (§4) The truncations were also assayed with a 71mer dsDNA substrate made by annealing the labeled 71mer oligonucleotide (AJM25) with the complementary 71mer oligonucleotide (AJG52). […] As the second motif and part of the third motif were removed in the φW39 ΔN59 and φW39 ΔN66, dsDNA binding was further reduced. As with the ssDNA, φW39 ΔN74 and P1 ΔN76 Ref had no observable dsDNA binding. Overall we provide evidence that the N-terminal region of Ref is necessary for DNA binding, and the putative charge motifs may contribute collectively to that function.
(§5) Ref proteins at 0.5-10,000 nM were incubated with 2 nM AJM25 71mer ssDNA or AJM25 annealed with AJG52 71mer to make a linear 71 bp dsDNA substrate in 25 mM Tris-acetate (pH 8.5), 3 mM potassium glutamate, 15 mM magnesium acetate, and 5% w/v glycerol at room temperature for 15 minutes. Fluorescence anisotropy (FA) was measured at 25° C., using a Tecan Infinite M1000 instrument with 470-nm excitation and 535-nm emission wavelengths for at least three replicates. The average FA values were plotted with one standard deviation of the mean shown as error. Prism software was used to convert FA values to the percent of DNA bound and apparent dissociation constants were determined using one-site, specific binding with Hill coefficient.

Data set [9] addresses T4, P1 ΔN76 Ref. The data set can be described thus: FP; no observable binding. The conditions noted are these: label: 5'-6FAM on AJM25. How it is done:
as §4, §5

Data set [10] deals with T5, φW39 ΔN47 Ref. The data set can be described thus: FP; apparent Kd; 143±12; 15 mM Mg acetate, pH 8.5, 25 C. The conditions noted are these: tags: expressed from pET21A with NdeI start Met; label: 5'-6FAM on AJM25. How it is done: as §1, §3

B1: AJM25 71mer ssDNA (ssDNA)
DNA: CAGAAGTAAGTTGGCCGCAGTGTTATCACTCATGGTTATGGCAGCACTGCATAATTCTCTTACTGTCATGC
Turning to B1, the binding result in the data set with φW39 ΔN74 Ref [1] and with P1 ΔN76 Ref [4] was “no binding” each time. Also, the Kd in the data set with φW39 ΔN21 Ref [2] was 119 nM; in the data set with P1 Ref (wild type) [3], 14.4 nM; in the data set with φW39 ΔN47 Ref [5], 113 nM.

B2: AJM25/AJG52 71 bp dsDNA (dsDNA)
DNA 1: CAGAAGTAAGTTGGCCGCAGTGTTATCACTCATGGTTATGGCAGCACTGCATAATTCTCTTACTGTCATGC
DNA 2: GCATGACAGTAAGAGAATTATGCAGTGCTGCCATAACCATGAGTGATAACACTGCGGCCAACTTACTTCTG
For the molecule B2, the Kd in the data set with P1 Ref (wild type) [6] stood at 13.5 nM; with φW39 ΔN21 Ref [7] it was 56.1 nM; with φW39 ΔN47 Ref [10] it was 142 nM. Further, the binding result in the data set with φW39 ΔN74 Ref [8] and with P1 ΔN76 Ref [9] was “no binding” each time.

The values are drawn from US20150023943, “REF Nuclease for Site-Specific REF-Mediated DNA Cleavage” (Wisconsin Alumni Research Foundation, published 2015).
